The labels stand for the following.
B1: MdMPK6-02G (as used in the BLI assay) (enzyme)
chain: MEGGGRSADTMMSEAAPPSQPDPNHPQQHPPPPHHAMGGVESIPATLSHGGRFIQYNIFGNVFEVTAKYKPPIMPIGKGAYGIVCSALNSETNEHVAVKKIANAFDNRIDAKRTLREIKLLRHMDHENVVAIRDIIPPPQRNFFNDVYIAYELMDTDLHQIIRSNQALSEEHCQYFLYQILRGLKYIHSANVLHRDLKPSNLLLNANCDLKICDFGLARVTSETDFMTEYVVTRWYRAPELLLNSSDYTAAIDVWSVGCIFMELMDRKPLFPGRDHVHQLRLLMELIGTPSEAELQFLNENAKRYIRQLPLYRRQSFTEKFPHVHPSAIDLVEKMLTFDPTRRITVEDALAHPYLTSLHDISDEPVCLTPFSFDFEQHALSEEQMKELIYREALAFNPEYQRQ
B2: MdHY5 (as used in the BLI assay) (natural protein)
chain: MQEQATSSLAASSLPSSSERSSSSAFHLEVKEGMESDEEIGRVPEIGGESAGASASARENGLLAGPDQVQTAGESQRKRGRNPADKESKRLKRLLRNRVSAQQARERKKAYLNDLEVRVKELEQKNSELDERLSTLQNENQMLRHILKNTTASRRGADGGANAD

Assay in all cases: BLI
Background: BLI is a label-free optical method that tracks binding on a fibre tip over time.

Assay [1] addresses B2.
Assay [2] addresses B2.
Assay [3] addresses MdMPK6-15G (as used in the BLI assay) (Malus domestica (apple)).

Consider B1, for which the affinity in assay [1], expressed as Kd, was 119 nM. The molecule further returned a koff in assay [2] of 0.00355 s⁻¹.

Regarding B2, in assay [3], the affinity, expressed as Kd, was 93.9 nM and the koff was 0.00105 s⁻¹.

The Kd is the concentration at which binding is half-saturated. High values mean weaker binding, low ones tighter binding. A word on the koff: it is the first-order rate constant of dissociation. Read a low koff as a long-lived complex.
